# B1: Coiled-coil-helix-coiled-coil-helix domain-containing protein 2 (Homo sapiens), Q9Y6H1 (parent)
# chain: MPRGSRSRTSRMAPPASRAPQMRAAPRPAPVAQPPAAAPPSAVGSSAAAPRQPGLMAQMATTAAGVAVGSAVGHTLGHAITGGFSGGSNAEPARPDITYQEPQGTQPAQQQQPCLYEIKQFLECAQNQGDIKLCEGFNEVLKQCRLANGLA
# partner: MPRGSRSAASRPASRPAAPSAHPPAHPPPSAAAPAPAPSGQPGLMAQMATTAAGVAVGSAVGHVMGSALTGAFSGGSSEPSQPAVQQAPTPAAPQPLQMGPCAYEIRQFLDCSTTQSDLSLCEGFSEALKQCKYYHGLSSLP
# Variants of: B1
# Details: with chc10_human CHCHD10, Q8WYQ3
row,Variant,effect of a mutation on the interaction
1,T61I,increasing interaction strength

# From IntAct's records for PubMed 30530185
